Measured values from patent publication US20030068675, “Position dependent recognition of GNN nucleotide triplets by zinc fingers” (published 2003).

Experiments:
Experiment in all cases: EMSA
Details in all cases: tags: MBP fusion
ZFP SBS#1087 = target: T1, ZFP SBS#1087 (synthetic, UniProt P08047)
T1 chain: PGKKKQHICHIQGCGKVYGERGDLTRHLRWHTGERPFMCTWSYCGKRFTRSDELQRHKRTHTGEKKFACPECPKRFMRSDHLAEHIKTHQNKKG
In short: (§1)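 Purified ZFP was titrated against labeled double-stranded target (1 nM or lower, at least 10-fold below expected Kd) carrying the natural binding site with flanks. Binding buffer was 10 mM Tris pH 7.5, 100 mM KCl, 1 mM MgCl2, 0.1 mM ZnCl2, 5 mM DTT, 10% glycerol, 0.02% BSA, with equilibration for at least 45 min. Bound and free target were separated on a 10% polyacrylamide gel.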

ZFP SBS#1088 = target: T2, ZFP SBS#1088 (synthetic, UniProt P08047)
T2 chain: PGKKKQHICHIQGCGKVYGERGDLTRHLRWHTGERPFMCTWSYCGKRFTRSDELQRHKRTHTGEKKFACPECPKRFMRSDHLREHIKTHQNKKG
In short: as §1

ZFP SBS#1081 = target: T3, ZFP SBS#1081 (synthetic, UniProt P08047)
T3 chain: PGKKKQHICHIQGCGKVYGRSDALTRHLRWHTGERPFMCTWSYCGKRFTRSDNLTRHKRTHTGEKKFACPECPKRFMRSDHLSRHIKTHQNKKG
In short: as §1

ZFP SBS#1094 = target: T4, ZFP SBS#1094 (synthetic)
T4 chain: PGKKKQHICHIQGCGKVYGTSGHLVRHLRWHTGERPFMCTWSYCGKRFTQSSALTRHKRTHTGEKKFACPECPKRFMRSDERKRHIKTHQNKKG
In short: as §1

ZFP SBS#1106 = ZFP SBS#1106 (synthetic)
Chain of ZFP SBS#1106 (synthetic) (chain, as listed by the source): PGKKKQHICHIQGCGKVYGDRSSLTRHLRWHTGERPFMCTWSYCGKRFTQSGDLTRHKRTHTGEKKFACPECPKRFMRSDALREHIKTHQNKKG
In short: as §1

ZFP SBS#1105 = ZFP SBS#1105 (synthetic)
Chain of ZFP SBS#1105 (synthetic) (chain, as listed by the source): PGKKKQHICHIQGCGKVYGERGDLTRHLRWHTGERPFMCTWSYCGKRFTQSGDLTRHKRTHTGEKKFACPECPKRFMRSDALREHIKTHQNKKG
In short: as §1

ZFP SBS#1079 = ZFP SBS#1079 (synthetic, UniProt P08047)
In short: as §1

ZFP SBS#1078 = ZFP SBS#1078 (synthetic, UniProt P08047)
Chain of ZFP SBS#1078 (P08047 other isoform, or with tags, fused parts or gaps): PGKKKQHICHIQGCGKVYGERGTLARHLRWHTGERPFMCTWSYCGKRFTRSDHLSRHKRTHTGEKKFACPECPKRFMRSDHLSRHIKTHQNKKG
In short: as §1

ZFP SBS#1096 = target: T5, ZFP SBS#1096 (synthetic)
T5 chain: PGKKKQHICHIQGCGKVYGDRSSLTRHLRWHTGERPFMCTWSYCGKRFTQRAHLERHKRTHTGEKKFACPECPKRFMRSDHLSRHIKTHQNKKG
In short: as §1

ZFP SBS#1095 = target: T6, ZFP SBS#1095 (synthetic)
T6 chain: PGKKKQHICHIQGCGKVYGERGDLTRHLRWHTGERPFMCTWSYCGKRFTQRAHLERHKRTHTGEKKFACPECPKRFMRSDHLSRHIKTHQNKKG
In short: as §1

ZFP SBS#1084 = target: T7, ZFP SBS#1084 (synthetic)
T7 chain: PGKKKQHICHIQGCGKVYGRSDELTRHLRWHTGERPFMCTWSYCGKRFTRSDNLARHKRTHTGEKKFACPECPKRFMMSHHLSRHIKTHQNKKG
In short: as §1

ZFP SBS#1085 = target: T8, ZFP SBS#1085 (synthetic)
T8 chain: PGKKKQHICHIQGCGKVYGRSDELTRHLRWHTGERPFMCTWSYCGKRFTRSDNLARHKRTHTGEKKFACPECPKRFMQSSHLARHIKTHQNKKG
In short: as §1

ZFP SBS#1068 = target: T9, ZFP SBS#1068 (synthetic)
T9 chain: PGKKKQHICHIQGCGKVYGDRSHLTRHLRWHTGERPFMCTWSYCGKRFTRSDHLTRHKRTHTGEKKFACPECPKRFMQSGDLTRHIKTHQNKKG
In short: as §1

ZFP SBS#1075 = target: T10, ZFP SBS#1075 (synthetic)
T10 chain: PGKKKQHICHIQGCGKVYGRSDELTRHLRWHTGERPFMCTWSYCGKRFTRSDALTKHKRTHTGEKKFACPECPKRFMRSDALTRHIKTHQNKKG
In short: as §1

ZFP SBS#1086 = ZFP SBS#1086 (synthetic)
In short: as §1

ZFP SBS#1071 = target: T11, ZFP SBS#1071 (synthetic, UniProt P08047)
T11 chain: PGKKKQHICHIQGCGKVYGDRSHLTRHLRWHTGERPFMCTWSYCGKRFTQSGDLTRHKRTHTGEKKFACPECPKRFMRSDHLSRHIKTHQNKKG
In short: as §1

ZFP SBS#1070 = target: T12, ZFP SBS#1070 (synthetic, UniProt P08047)
T12 chain: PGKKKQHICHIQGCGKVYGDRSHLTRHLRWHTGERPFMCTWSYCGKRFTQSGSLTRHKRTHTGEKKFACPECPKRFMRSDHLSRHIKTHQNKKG
In short: as §1

ZFP SBS#1082 = target: T13, ZFP SBS#1082 (synthetic)
T13 chain: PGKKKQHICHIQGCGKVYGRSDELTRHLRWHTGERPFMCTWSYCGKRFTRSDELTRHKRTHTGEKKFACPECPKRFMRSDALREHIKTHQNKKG
In short: as §1

ZFP SBS#980 = target: T14, ZFP SBS#980 (synthetic, UniProt P08047)
T14 chain: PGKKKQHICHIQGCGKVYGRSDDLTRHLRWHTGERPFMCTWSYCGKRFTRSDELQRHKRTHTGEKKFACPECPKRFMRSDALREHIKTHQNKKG
In short: as §1

ZFP SBS#979 = ZFP SBS#979 (synthetic, UniProt P08047)
In short: as §1

ZFP SBS#1080 = target: T15, ZFP SBS#1080 (synthetic)
T15 chain: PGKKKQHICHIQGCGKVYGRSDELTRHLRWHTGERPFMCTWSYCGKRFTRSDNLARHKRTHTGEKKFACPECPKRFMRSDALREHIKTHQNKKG
In short: as §1

ZFP SBS#1097 = target: T16, ZFP SBS#1097 (synthetic)
T16 chain: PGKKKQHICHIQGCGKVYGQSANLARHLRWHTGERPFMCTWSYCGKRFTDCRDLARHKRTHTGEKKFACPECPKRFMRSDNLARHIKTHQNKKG
In short: as §1

ZFP SBS#1072 = ZFP SBS#1072 (synthetic)
Chain of ZFP SBS#1072 (synthetic) (chain, as listed by the source): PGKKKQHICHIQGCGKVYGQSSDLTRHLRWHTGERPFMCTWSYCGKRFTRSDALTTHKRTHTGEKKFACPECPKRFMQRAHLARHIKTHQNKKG
In short: as §1

ZFP SBS#1073 = ZFP SBS#1073 (synthetic)
Chain of ZFP SBS#1073 (synthetic) (chain, as listed by the source): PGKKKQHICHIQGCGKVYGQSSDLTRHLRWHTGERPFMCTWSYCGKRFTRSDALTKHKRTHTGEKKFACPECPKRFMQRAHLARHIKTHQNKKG
In short: as §1

ZFP SBS#1089 = target: T17, ZFP SBS#1089 (synthetic)
T17 chain: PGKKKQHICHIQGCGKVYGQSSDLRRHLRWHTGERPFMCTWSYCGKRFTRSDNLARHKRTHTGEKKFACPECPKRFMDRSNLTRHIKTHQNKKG
In short: as §1

ZFP SBS#1077 = target: T18, ZFP SBS#1077 (synthetic)
T18 chain: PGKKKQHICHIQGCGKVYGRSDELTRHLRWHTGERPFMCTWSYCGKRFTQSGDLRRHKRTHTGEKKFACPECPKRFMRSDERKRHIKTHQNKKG
In short: as §1

ZFP SBS#1076 = target: T19, ZFP SBS#1076 (synthetic)
T19 chain: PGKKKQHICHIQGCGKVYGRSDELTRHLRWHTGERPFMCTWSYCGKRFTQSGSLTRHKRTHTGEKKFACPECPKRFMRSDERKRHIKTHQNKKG
In short: as §1

ZFP SBS#1083 = target: T20, ZFP SBS#1083 (synthetic)
T20 chain: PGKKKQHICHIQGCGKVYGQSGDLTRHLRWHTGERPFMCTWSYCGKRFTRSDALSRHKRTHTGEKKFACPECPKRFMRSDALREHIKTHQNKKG
In short: as §1

ZFP SBS#1103 = ZFP SBS#1103 (synthetic)
Chain of ZFP SBS#1103 (synthetic) (chain, as listed by the source): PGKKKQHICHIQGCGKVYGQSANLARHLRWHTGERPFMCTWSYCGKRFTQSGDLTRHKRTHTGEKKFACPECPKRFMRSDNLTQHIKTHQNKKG
In short: as §1

ZFP SBS#1102 = target: T21, ZFP SBS#1102 (synthetic)
T21 chain: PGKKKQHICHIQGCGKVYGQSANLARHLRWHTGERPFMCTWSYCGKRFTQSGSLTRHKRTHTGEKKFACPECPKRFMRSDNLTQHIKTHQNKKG
In short: as §1

ZFP SBS#464 = target: T22, ZFP SBS#464 (synthetic)
T22 chain: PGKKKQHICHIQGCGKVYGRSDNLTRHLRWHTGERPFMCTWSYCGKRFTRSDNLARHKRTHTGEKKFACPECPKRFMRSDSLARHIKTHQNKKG
In short: as §1

ZFP SBS#463 = target: T23, ZFP SBS#463 (synthetic)
T23 chain: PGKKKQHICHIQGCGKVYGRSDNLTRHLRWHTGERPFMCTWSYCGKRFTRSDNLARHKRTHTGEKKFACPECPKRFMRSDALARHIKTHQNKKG
In short: as §1

ZFP SBS#1069 = target: T24, ZFP SBS#1069 (synthetic)
T24 chain: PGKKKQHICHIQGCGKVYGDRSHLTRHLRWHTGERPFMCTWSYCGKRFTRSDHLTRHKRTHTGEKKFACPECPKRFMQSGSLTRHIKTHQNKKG
In short: as §1

B1: CGGGCGGCC (dsDNA)
DNA 1: CGGGCGGCC
DNA 2: GGCCGCCCG
- Kd (ZFP SBS#1087): 1.24 nM
- Kd (ZFP SBS#1088): 0.905 nM

B2: GGGGAGGTG (dsDNA)
DNA 1: GGGGAGGTG
DNA 2: CACCTCCCC
- Kd (ZFP SBS#1081): 0.05 nM

B3: GCGGTTGGT (dsDNA)
DNA 1: GCGGTTGGT
DNA 2: ACCAACCGC
- Kd (ZFP SBS#1094): 12.3 nM

B4: CTGGCAGCC (dsDNA)
DNA 1: CTGGCAGCC
DNA 2: GGCTGCCAG
- Kd (ZFP SBS#1106): 0.19 nM
- Kd (ZFP SBS#1105): 2.45 nM

B5: GGGGGGGCC (dsDNA)
DNA 1: GGGGGGGCC
DNA 2: GGCCCCCCC
- Kd (ZFP SBS#1079): 4.1 nM
- Kd (ZFP SBS#1078): 0.2 nM

B6: GGGGGAGCC (dsDNA)
DNA 1: GGGGGAGCC
DNA 2: GGCTCCCCC
- Kd (ZFP SBS#1096): 0.019 nM
- Kd (ZFP SBS#1095): 0.395 nM

B7: GGTGAGGCG (dsDNA)
DNA 1: GGTGAGGCG
DNA 2: CGCCTCACC
- Kd (ZFP SBS#1084): 0.5 nM
- Kd (ZFP SBS#1085): 0.46 nM

B8: GCAGGGGGC (dsDNA)
DNA 1: GCAGGGGGC
DNA 2: GCCCCCTGC
- Kd (ZFP SBS#1068): 2.05 nM

B9: GTGTTGGCG (dsDNA)
DNA 1: GTGTTGGCG
DNA 2: CGCCAACAC
- Kd (ZFP SBS#1075): 0.915 nM

B10: GGGGCTCGG (dsDNA)
DNA 1: GGGGCTCGG
DNA 2: CCGAGCCCC
- Kd (ZFP SBS#1086): 0.1 nM

B11: GGGGCAGGC (dsDNA)
DNA 1: GGGGCAGGC
DNA 2: GCCTGCCCC
- Kd (ZFP SBS#1071): 0.2 nM
- Kd (ZFP SBS#1070): 0.456 nM

B12: CTGGCGGCG (dsDNA)
DNA 1: CTGGCGGCG
DNA 2: CGCCGCCAG
- Kd (ZFP SBS#1082): 0.152 nM
- Kd (ZFP SBS#980): 2.2 nM
- Kd (ZFP SBS#979): 1.59 nM

B13: CTGGAGGCG (dsDNA)
DNA 1: CTGGAGGCG
DNA 2: CGCCTCCAG
- Kd (ZFP SBS#1080): 1.37 nM

B14: GAGGCCGAA (dsDNA)
DNA 1: GAGGCCGAA
DNA 2: TTCGGCCTC
- Kd (ZFP SBS#1097): 0.77 nM

B15: GGATTGGCT (dsDNA)
DNA 1: GGATTGGCT
DNA 2: AGCCAATCC
- Kd (ZFP SBS#1072): 0.46 nM
- Kd (ZFP SBS#1073): 1.37 nM

B16: GACGAGGCT (dsDNA)
DNA 1: GACGAGGCT
DNA 2: AGCCTCGTC
- Kd (ZFP SBS#1089): 0.171 nM

B17: GCGGCAGCG (dsDNA)
DNA 1: GCGGCAGCG
DNA 2: CGCTGCCGC
- Kd (ZFP SBS#1077): 6.2 nM
- Kd (ZFP SBS#1076): 4.1 nM

B18: CTGGTGGCA (dsDNA)
DNA 1: CTGGTGGCA
DNA 2: TGCCACCAG
- Kd (ZFP SBS#1083): 0.152 nM

B19: AAGGCAGAA (dsDNA)
DNA 1: AAGGCAGAA
DNA 2: TTCTGCCTT
- Kd (ZFP SBS#1103): 1.4 nM
- Kd (ZFP SBS#1102): 8.15 nM

B20: GTGGAGGAGA (dsDNA)
DNA 1: GTGGAGGAGA
DNA 2: TCTCCTCCAC
- Kd (ZFP SBS#464): 0.4 nM
- Kd (ZFP SBS#463): 0.5 nM

B21: GCAGGCGGT (dsDNA)
DNA 1: GCAGGCGGT
DNA 2: ACCGCCTGC
- Kd (ZFP SBS#1069): 0.1 nM
